“Also recorded” adds a separate entry of the source.
What was measured:
Format in all cases: cell-based, Staphylococcus aureus
MSSA isolates = test: MIC in CAMHB-HSD against MSSA isolates; settings: 51 MSSA isolates
Experimental: In vitro activity of the modified lysin polypeptide pp296 was assessed against a range of 51 MSSA and 51 MRSA isolates in cation-adjusted Mueller Hinton broth supplemented with 25% horse serum and 0.5 mM DTT (CAMHB-HSD) and compared to WT GMP grade PlySs2 (CF-301). CF-301 and pp296 were each diluted into CAMHB-HSD. For each lysin, the dilution series is set up such that, after a two-fold dilution of each well of the plate, the final concentrations contained: 64, 32, 16, 8, 4, 2, 1, 0.5, 0.25, and 0.125 μg/mL. Each lysin was tested in duplicate against each strain. Preparations were incubated overnight. Growth was visualized as a growth button approximately 2 mm in diameter. The highest dilution that yielded ≥80% growth inhibition was called the minimum inhibitory concentration (MIC). The activity of pp296 was very similar, within one 2-fold dilution, to that of CF-301, as shown below in Table 7.

[1] = tested on: 1-day old biofilms formed by MSSA isolates; test: Minimum Biofilm Eradication Concentration (MBEC), MSSA biofilms; settings: 24 hours treatment
Experimental: In some embodiments, the present modified lysin polypeptides are capable of reducing a biofilm. […] Biofilms are then washed and treated with e.g., a 2-fold dilution series of the lysin in TSBg at e.g., 37° C. for 24 hours. After treatment, wells are washed, air-dried at e.g., 37° C. and stained with e.g., 0.05% crystal violet for 10 minutes. After staining, the biofilms are destained in e.g., 33% acetic acid and the OD600 of e.g., extracted crystal violet is determined. The MBEC of each sample is the minimum lysin concentration required to remove >95% of the biofilm biomass assessed by crystal violet quantitation.
The anti-biofilm activity of pp296 was determined against 1-day old biofilms formed by 17 MSSA and 20 MRSA isolates in a 96-well broth microdilution format. The Minimum Biofilm Eradication Concentration (MBEC) values for pp296, compared to wild-type PlySs2 (CF-301), were determined by the following standard methodology. Bacteria were suspended in PBS (0.5 McFarland Units), diluted 1:100 in TSBg (66% tryptic soy broth, 0.2% glucose), added as 0.15 mL aliquots to 96-well polystyrene microplates, and incubated for 24 hours at 37° C. Biofilms were then washed and treated with a 2-fold dilution series of CF-301 or pp296 in TSBg at 37° C. for 24 hours. All samples were examined in triplicate. After treatment, wells were washed, air-dried at 37° C., and stained with 0.05% crystal violet for 10 min The loss of biofilm biomass was assessed visually, and crystal violet was quantitated by solubilization in 33% (vol/vol) acetic acid. The optical density of 600 nm (OD600) was determined using a SpectraMax M3 Multimode microplate reader. The MBEC of each sample was the minimum lysin concentration required to remove >95% of the biofilm biomass assessed by crystal violet quantitation.

[2] = tested on: 5 MRSA strains and 5 MSSA strains; test: Checkerboard synergy assay with daptomycin or vancomycin; settings: for FIC index: with vancomycin
Experimental: Synergy studies with antibiotics suitable for treatment of Gram-positive bacteria, for example, daptomycin (DAP) and vancomycin (VAN), were performed using a checkerboard assay. Fractional inhibitory concentration (FIC) index values were determined for modified lysin polypeptide pp296 and antibiotic combinations against 5 methicillin-sensitive Staphylococcus aureus (MSSA) and 5 methicillin resistant Staphylococcus aureus (MRSA) isolates. An FIC index value of ≤0.5 may be interpreted as strong synergy between the two agents, while a value between 0.5 and 1 may still be considered a synergistic effect. Given that pp296 has four amino acid replacements in the catalytic domain, the ability of pp296 to synergize with antibiotics was unexpected. […] Qualitatively similar results may be anticipated upon performing similar assays using other de-immunized active variants, such as pp55, pp61, pp65, pp400, and pp619, in accordance with the present disclosure.
In another experiment, the ability of modified lysin polypeptide pp296 to synergize with daptomycin and vancomycin was assessed using a checkerboard analysis. FIC (fractional inhibitory concentration) index values were determined for pp296 and antibiotic combinations against 5 MSSA and 5 MRSA isolates. A total of 50 μl of Mueller-Hinton broth (BBL) was distributed into each well of microdilution plates. The first antibiotic of the combination was serially diluted along the ordinate, while the second drug was diluted along the abscissa. An inoculum equal to a 0.5 McFarland turbidity standard was prepared from each S. aureus isolate in MHB. Each microtiter well was inoculated with 100 μl of a bacterial inoculum of 5×10^5 CFU/ml, and the plates were incubated at 37° C. for 18 h under aerobic conditions. The resulting checkerboard contained each combination of two antibiotics, with wells that contained the highest concentration of each antibiotic at opposite corners. […] To quantify the interactions between the antibiotics being tested, the FIC index (the combination of antibiotics that produced the greatest change from the individual antibiotic's MIC) value was calculated for each strain and antibiotic combination as follows:
(A/MICA)+(B/MICB)=FICA+FICB=FIC index,
Checkerboards were generated using combinations of pp296 with either daptomycin or vancomycin against 5 MRSA strains (MW2, JMI-5675, JMI-4408, JMI-6181, and JMI-6182) and 5 MSSA strains (ATCC 29213, JMI-40979, JMI-43257, JMI-41293, and JMI-49315). Synergy was defined as inhibitory activity greater than what would be predicted by adding the two components together.

MRSA strain MW2 = test: Serial passage resistance assay
Experimental: An analysis of bacterial resistance was performed using MRSA strain MW2 over 18 days of serial passage in the presence of a pp296 dilution series and an antibiotic dilution series in presence and absence of sub-MIC amounts of pp296. Briefly, the broth microdilution MIC format was used in which 2-fold dilutions ranges of pp296 alone or antibiotic in the presence and absence of a fixed sub-MIC amount of pp296 was cultured with bacteria (5×10^5 CFU/ml starting concentration) in MHB for 20 hours at 37° C. The well with the highest concentration of the modified lysin polypeptide in which bacterial growth was seen was then used as the inoculum for the next day's passage, and the process was repeated over a […]. The MIC at each daily time-point was recorded, and resistance was measured as a step-wise increase in MIC. […] The results are depicted graphically in FIGS. 3A-3C.

B1: pp296: Modified PlySs2 lysin, SEQ ID NO: 6: L92W, V104S, V128T, Y137S, Y164K, N184D, S198Q (protein)
chain: MTTVNEALNNVRAQVGSGVSVGNGECYALASWYERMISPDATVGLGAGVGWVSGAIGDTISAKNIGSSYNWQANGWTVSTSGPFKAGQIVTWGATPGNPYGHVSIVEAVDGDRLTILEQNYGGKRYPTRNYYSAASSRQQVVHYITPPGTVAQSAPNLAGSRSKRETGTMTVTVDALNVRRAPDTSGEIVAVYKRGEQFDYDTAIIDVNGYAWVSYIGGSGKRNYVATGATKDGKRFGNAWGTFK
MIC50 (MSSA isolates): 1 µg/mL | MIC90 (MSSA isolates): 1 µg/mL | MIC Range (MSSA isolates): 0.5 to 2 µg/mL | MBEC50 [1]: 0.063 µg/mL | MBEC90 [1]: 0.25 µg/mL | MBEC Range [1]: 0.01 to 1 µg/mL | FIC index values ([2]; with both daptomycin and vancomycin, predominantly): ~0.5 | FIC index ([2]; MRSA JMI-6182): 0.375 | FIC index ([2]; MSSA ATCC 29213): 0.625 | FIC index ([2]; MSSA strain JMI-40979): 0.375 | FIC index ([2]; against 6 of the 10 strains examined): 0.5 | Increase in MIC of DAP or VAN / appearance of antibiotic resistance (MRSA strain MW2; antibiotic plus fixed sub-MIC amount of lysin): no or very little increase; also recorded: suppressed the appearance of daptomycin and vancomycin resistance | Resistance to the lysin (increase in MIC on serial passage) (MRSA strain MW2; lysin alone, three replicate lineages, 21-26 day period): no or very little increase; also recorded: no resistance to pp296 was observed | Amount needed to suppress DAP resistance (MRSA strain MW2; with daptomycin, 1/16th the MIC for pp296 alone): 0.125 µg/mL | Amount needed to suppress development of VAN resistance (MRSA strain MW2; with vancomycin, 1/8th the MIC for pp296 alone): 0.25 µg/mL
